Test results: US20200405868A1, “GEL-FORMING POLYPEPTIDES” (priority 2018, published 2020)
“Also recorded” adds a separate entry of the source. Where a SMILES comes first, the peptide text is derived from it. Where no end group is shown, it is not given here. [ ]: non-standard residue; d: D form. The star is where a group is joined. d2Nal = N[C@H](Cc1ccc2ccccc2c1)C(=O)O; Palmitoyl = CCCCCCCCCCCCCCCC(=O)*

Test: Compound gel-forming ability in water (visual inspection, tube tapping assay, tilted tube assay);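 also: peptides mixed with de-ionized water at about 22-25 °C, judged after 20 min by eye plus tube tapping (10 taps, moves counted) and 90° tilt mobility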
Type: physicochemical
Settings: for gel formation at 6% w/w: 6% w/w in water; for gel formation at 11% w/w: 11% w/w in water; for gel formation in aqueous solution, 11% / propensity to form gels, chimeric or mutated polypeptides, 11% / propensity to form gels, wild-type counterparts, 11%: 11% w/w; for gel formation in aqueous solution, 6% / propensity to form gels, chimeric or mutated polypeptides, 6% / propensity to form gels, wild-type counterparts, 6%: 6% w/w; for Physical property at 11% w/w: 11% w/w in aqueous solution, room temperature; for gel formation at 20% w/w: 20% w/w in water; for gel formation at 3% w/w: 3% w/w in water

Row | Molecule | gel formation at 11% w/w | gel formation in aqueous solution, 11% (Table 3) | propensity to form gels, chimeric or mutated polypeptides, 11% (Table 5) | gel formation in aqueous solution, 6% (Table 3) | other results
1 | Pal-KVQKLSAPVDPSSPHSY-miniPEG-CSNLSTCVLGKLSQELHKLQTYPRTNTGSGTP-NH2 [SEQ ID NO:217] | semisolid gel | SS (SS for semisolid gel) | SS (An ability to form semisolid gel is represented by an SS) | – | gel formation at 6% w/w: liquid gel
2 | Pal-SSPHSY-miniPEG-PFRSVQ-NH2 [SEQ ID NO:242] | semisolid gel | SS (SS for semisolid gel) | SS (An ability to form semisolid gel is represented by an SS) | – | gel formation at 6% w/w: liquid gel
3 | Pal-HSYAAVDTSSEITTKDLKEKKEVVEEAEN-NH2 [SEQ ID NO:240] | semisolid gel | SS (SS for semisolid gel) | SS (An ability to form semisolid gel is represented by an SS) | AS/IS (AS/IS for aqueous solution or insoluble) | propensity to form gels, chimeric or mutated polypeptides, 6% (Table 5): AS/IS
4 | PFRSVQ-NH2 [SEQ ID NO:37, reference compound] | does not form gel | AS/IS (AS/IS for aqueous solution or insoluble) | – | – | Physical property at 11% w/w (Table 1): AS/IS; propensity to form gels, wild-type counterparts, 11% (Table 5): AS/IS
5 | RPKPQQFFGLM-NH2 [SEQ ID NO:23, reference compound] | semisolid gel | AS/IS (AS/IS for aqueous solution or insoluble) | – | – | Physical property at 11% w/w (Table 1): AS/IS; propensity to form gels, wild-type counterparts, 11% (Table 5): AS/IS
6 | Pal-SSPHSY-miniPEG-EAYKAAEKAYAAKEAAKEAAKAKAEKKAAYAKAKAAKYEKKAKKAAAEYKKK ({Palmitoyl-Ser-Ser-Pro-H2N-Ser-Tyr-miniPEG}-EAYKAAEKAYAAKEAAKEAAKAKAEKKAAYAKAKAAKYEKKAKKAAAEYKKK) [SEQ ID NO:245] | – | AS/IS (AS/IS for aqueous solution or insoluble) | AS/IS | – | gel formation at 20% w/w: semisolid gel; gel formation in aqueous solution, 20% (Table 3, 20% w/w): SS (SS for semisolid gel); propensity to form gels, chimeric or mutated polypeptides, 20% (Table 5, 20% w/w): SS (An ability to form semisolid gel is represented by an SS)
7 | Pal-SSPHSY-miniPEG-(D-Ala)-(D-(β-naphthyl))-AAW-(D-Phe)-Lys-NH2 [SEQ ID NO:235] | semisolid gel | SS (SS for semisolid gel) | SS (An ability to form semisolid gel is represented by an SS) | SS (SS for semisolid gel) | gel formation at 3% w/w: semisolid gel; gel formation at 6% w/w: semisolid gel; gel formation in aqueous solution, 3% (Table 3, 3% w/w): SS (SS for semisolid gel); propensity to form gels, chimeric or mutated polypeptides, 3% (Table 5, 3% w/w): SS (An ability to form semisolid gel is represented by an SS); propensity to form gels, chimeric or mutated polypeptides, 6% (Table 5): SS (An ability to form semisolid gel is represented by an SS)
8 | Pal-VQKLAHQIYQFTDKDVAPRSKISPQGY-NH2 (Palmitoyl-VQKLAHQIYQFTDKDVAPRSKISPQGY-NH2; SMILES CCCCCCCCCCCCCCCC(=O)N[C@H](C(=O)N[C@@H](CCC(N)=O)C(=O)N[C@@H](CCCCN)C(=O)N[C@@H](CC(C)C)C(=O)N[C@@H](C)C(=O)N[C@@H](Cc1c[nH]cn1)C(=O)N[C@@H](CCC(N)=O)C(=O)N[C@H](C(=O)N[C@@H](Cc1ccc(O)cc1)C(=O)N[C@@H](CCC(N)=O)C(=O)N[C@@H](Cc1ccccc1)C(=O)N[C@H](C(=O)N[C@@H](CC(=O)O)C(=O)N[C@@H](CCCCN)C(=O)N[C@@H](CC(=O)O)C(=O)N[C@H](C(=O)N[C@@H](C)C(=O)N1CCC[C@H]1C(=O)N[C@@H](CCCNC(=N)N)C(=O)N[C@@H](CO)C(=O)N[C@@H](CCCCN)C(=O)N[C@H](C(=O)N[C@@H](CO)C(=O)N1CCC[C@H]1C(=O)N[C@@H](CCC(N)=O)C(=O)NCC(=O)N[C@@H](Cc1ccc(O)cc1)C(N)=O)[C@@H](C)CC)C(C)C)[C@@H](C)O)[C@@H](C)CC)C(C)C) [SEQ ID NO:102] | – | – | – | – | Physical property at 11% w/w (Table 2): AS/IS (AS/IS for aqueous solution or insoluble)
9 | Ace-FKFEFKFE-NH2 [SEQ ID NO:141, reference compound] | – | – | – | – | Physical property at 11% w/w (Table 2): SS (SS for semisolid gel)
10 | C[C@H](NC(=O)[C@@H](Cc1ccc2ccccc2c1)NC(=O)[C@@H](C)N)C(=O)N[C@@H](Cc1c[nH]c2ccccc12)C(=O)N[C@H](Cc1ccccc1)C(=O)N[C@@H](CCCCN)C(N)=O [SEQ ID NO:8, (D-Ala)-(D-(β-naphthyl))-AAW-(D-Phe)-Lys-NH2, reference compound] (H-[dA][d2Nal]AW[dF]K-NH2) | form self-assembling gels; also recorded: semisolid gel | SS (SS for semisolid gel) | – | SS (SS for semisolid gel) | gel formation at 3% w/w: liquid gel; gel formation at 6% w/w: semisolid gel; Physical property at 11% w/w (Table 1): SS (SS for semisolid gel); propensity to form gels, wild-type counterparts, 6% (Table 5): SS (An ability to form semisolid gel is represented by an SS); propensity to form gels, wild-type counterparts, 11% (Table 5): SS (An ability to form semisolid gel is represented by an SS)
11 | Pal-SSPHSY-miniPEG-FLPLIGRVLSGIL-NH2 ({Palmitoyl-Ser-Ser-Pro-H2N-Ser-Tyr-miniPEG}-FLPLIGRVLSGIL-NH2) [SEQ ID NO:243] | semisolid gel | SS (SS for semisolid gel) | – | AS/IS (AS/IS for aqueous solution or insoluble) | –
12 | Pal-HSYADAIFTNSYRKVLGQLSARKLLQDIMSR-NH2 (Palmitoyl-HSYADAIFTNSYRKVLGQLSARKLLQDIMSR-NH2; SMILES CCCCCCCCCCCCCCCC(=O)N[C@@H](Cc1c[nH]cn1)C(=O)N[C@@H](CO)C(=O)N[C@@H](Cc1ccc(O)cc1)C(=O)N[C@@H](C)C(=O)N[C@@H](CC(=O)O)C(=O)N[C@@H](C)C(=O)N[C@H](C(=O)N[C@@H](Cc1ccccc1)C(=O)N[C@H](C(=O)N[C@@H](CC(N)=O)C(=O)N[C@@H](CO)C(=O)N[C@@H](Cc1ccc(O)cc1)C(=O)N[C@@H](CCCNC(=N)N)C(=O)N[C@@H](CCCCN)C(=O)N[C@H](C(=O)N[C@@H](CC(C)C)C(=O)NCC(=O)N[C@@H](CCC(N)=O)C(=O)N[C@@H](CC(C)C)C(=O)N[C@@H](CO)C(=O)N[C@@H](C)C(=O)N[C@@H](CCCNC(=N)N)C(=O)N[C@@H](CCCCN)C(=O)N[C@@H](CC(C)C)C(=O)N[C@@H](CC(C)C)C(=O)N[C@@H](CCC(N)=O)C(=O)N[C@@H](CC(=O)O)C(=O)N[C@H](C(=O)N[C@@H](CCSC)C(=O)N[C@@H](CO)C(=O)N[C@@H](CCCNC(=N)N)C(N)=O)[C@@H](C)CC)C(C)C)[C@@H](C)O)[C@@H](C)CC) [SEQ ID NO:237] | – | AS/IS (AS/IS for aqueous solution or insoluble) | AS/IS | AS/IS (AS/IS for aqueous solution or insoluble) | gel formation at 20% w/w: semisolid gel; gel formation in aqueous solution, 20% (Table 3, 20% w/w): SS (SS for semisolid gel); propensity to form gels, chimeric or mutated polypeptides, 6% (Table 5): AS/IS; propensity to form gels, chimeric or mutated polypeptides, 20% (Table 5, 20% w/w): SS (An ability to form semisolid gel is represented by an SS)
13 | SVSEIQLMHNLGKHLNSMERVEWLRKKLQDVHNF [SEQ ID NO:25, reference compound] | does not form gel | AS/IS (AS/IS for aqueous solution or insoluble) | – | AS/IS (AS/IS for aqueous solution or insoluble) | gel formation at 6% w/w: does not form gel; Physical property at 11% w/w (Table 1): AS/IS; propensity to form gels, wild-type counterparts, 6% (Table 5): AS/IS; propensity to form gels, wild-type counterparts, 11% (Table 5): AS/IS
14 | SLRRSSCFGGRMDRIGAQSGLGCNSFRY-NH2 [SEQ ID NO:41, reference compound] | does not form gel | AS/IS (AS/IS for aqueous solution or insoluble) | – | – | gel formation at 20% w/w: does not form gel; Physical property at 11% w/w (Table 1): AS/IS; gel formation in aqueous solution, 20% (Table 3, 20% w/w): AS/IS (AS/IS for aqueous solution or insoluble); propensity to form gels, wild-type counterparts, 11% (Table 5): AS/IS; propensity to form gels, wild-type counterparts, 20% (Table 5, 20% w/w): AS/IS
15 | Pal-KVQNLSAPVDPSSPHSY-NH2 [SEQ ID NO:104] | – | – | – | – | Physical property at 11% w/w (Table 2): AS/IS (AS/IS for aqueous solution or insoluble)
16 | Pal-SSPHSY-miniPEG-ICVVQDWGHHRCT-NH2 [SEQ ID NO:244] | semisolid gel | SS (SS for semisolid gel) | SS (An ability to form semisolid gel is represented by an SS) | AS/IS (AS/IS for aqueous solution or insoluble) | propensity to form gels, chimeric or mutated polypeptides, 6% (Table 5): AS/IS
17 | Pal-HSYEEMQRR-NH2 [SEQ ID NO:250] | semisolid gel | SS (SS for semisolid gel) | SS (An ability to form semisolid gel is represented by an SS) | AS/IS (AS/IS for aqueous solution or insoluble) | propensity to form gels, chimeric or mutated polypeptides, 6% (Table 5): AS/IS
